How the values were obtained:
[1] = Stability in Co-Formulation with GLP-1R Agonist (dulaglutide); assay type: physicochemical; details: four weeks, dulaglutide 3 mg/mL
Procedure: Examples 1 and 3 are prepared and dialyzed against C6.5 (10 mM Citrate pH 6.5) using the same method as described above for preparation into T7 buffer. Compounds are formulated separately at 1 mg/mL peptide in buffer C6.5, C6.5M (10 mM Citrate, 46.4 mg/mL D-mannitol, pH 6.5), C6.5T (10 mM Citrate, 0.02% polysorbate-80, pH 6.5), and C6.5MT (10 mM Citrate, 46.4 mg/mL D-mannitol, 0.02% polysorbate-80, pH 6.5). A stock concentration of 46.5 mg/mL of dulaglutide in C6.5 is used to formulate dulaglutide at 3 mg/mL in C6.5 and C6.5MT. Co-formulations in C6.5MT are prepared having 3 mg/mL dulaglutide and 1 mg/mL Example 1, or 3 mg/mL dulaglutide and 1 mg/mL Example 3. Each formulated sample is transferred to three vials and maintained at 4° C., 25° C. and 40° C. Samples are assessed every two weeks for a total of four weeks. Samples are visually assessed for turbidity and phase separation. Stability is assessed by RP-HPLC and SEC-HPLC as described above. Both described HPLC methods give good separation of Example compounds and dulaglutide main peaks as well as all degradation peaks produced by stressing the sample at pH 9 and 40° C. for 3 days.

[2] = target: human Glucagon-Like Peptide-1 receptor (hGLP-1R) (Homo sapiens, UniProt P43220); assay: hGLP-1-R functional cAMP assay
[3] = target: T1, human glucagon receptor (hGcg-R) (Homo sapiens, UniProt P47871); assay: hGcg-R functional cAMP assay; assay type: cell-based; details: geometric mean ± SEM
T1 construct: expressed in transfected cells; host or cells: 293HEK, plasmid phD, hygromycin selection

Row | Compound | GLP-1-Fc Δ % Main Peak ([1]; RP-HPLC, C6.5, 25° C.) | GLP-1-Fc Δ % Main Peak ([1]; RP-HPLC, C6.5MT, 4° C.) | GLP-1-Fc Δ % Main Peak ([1]; RP-HPLC, C6.5MT, 25° C.) | GLP-1-Fc Δ % Main Peak ([1]; SEC-HPLC, C6.5, 4° C.) | GLP-1-Fc Δ % Main Peak ([1]; SEC-HPLC, C6.5, 25° C.) | GLP-1-Fc Δ % Main Peak ([1]; SEC-HPLC, C6.5, 40° C.) | GLP-1-Fc Δ % Main Peak ([1]; SEC-HPLC, C6.5MT, 4° C.) | GLP-1-Fc Δ % Main Peak ([1]; SEC-HPLC, C6.5MT, 25° C.) | GLP-1-Fc Δ % Main Peak ([1]; SEC-HPLC, C6.5MT, 40° C.) | EC50 [2] | EC50 [3]
1 | dulaglutide | >−10% | −0.46% | −0.8% | 0.19% | −0.54% | >−10% | 0.29% | −0.87% | −0.83% | – | –

From patent US9764004B2 (Eli Lilly and Company, priority 2015, dated 2017)
